# Results from article PMC8009872, “Beam image-shift accelerated data acquisition for near-atomic resolution single-particle cryo-electron tomography” (Nature Communications, 2021).
# Molecular target: the molecule itself
# Assay: cryo-EM structure
protein,measurement,value
protein VC1979 of Vibrio cholerae (dNTPase) (enzyme) QVSLNPEWLARNNDEHKIRRNDHRSPFQRDRARILHSAAFRRLQAKTQVHGTSLNDFHRTRLTHSLEAAQIGTGIVAQIKLKQPEFRELLPSDSLIDSLCLAHDIGHPPYGHGGEIALNYMMRDHGGFEGNAQTFRIVTSLEPYTEHHGMNLSRRTLLGLLKYPALLSATRAAIPPPAVAHQRQLKAKDWSPAKGIYDCDLASLDWVLEPLCESDRELLGQMRAEPSSPKEHRKTRFKSLDCSIMELADDIAYGVHDLEDAIVLGMVTRAQWQEAAAAQLAECGDPWFEEHIAELSEMLFSGKHYVRKDAIGGIVNALLTSISVKPVEAPFHNELLAFNAYIEPHMGNALEVLKHFVSQYVIQIPQVQRFEYKGQQLIMDLFEALSADPERLLPQATGEKWRKAQEQDEGMRVICDYIAAMTDAYAQRLHQQLFSAQSHY,stoichiometry N,6
